The values below come from patent US9913914.

The data set deals with Cupid B-PTEN peptide.

B1: PTEN protein of Dictyostelium (protein)
chain: MSNLLRVAVSKQKRRYQKNGYDLDLAYITDNIVAMGFPSEKVEGVFRNPMKDVQRFLDQYHKDHFKVYNLCSERVYDHSKFYGRVGYYPFDDHNAPQFEMIDAFCRDVDAWMKEDSKNIAVIHCKAGKGRTGLMICCWLMYCGMWKNTEDSLRFYAALRTYNQKGVTIPSQIRYVGYFGRSIRESIKYVPRNVTLKKIVLRPLPKEINLSEVQFNISVGKNCVFNSKEHNMNVVISKKKKTVVDKNKKDPKKKLTKENSEKNIDSQQQQQSQSSLSQSQQGQSSPNMQSLSASGTISSGSNVGTVNGNTLHQLGGSQFSLSDLADGNTIGNDEYISFEIGALSLAGDIRIEFTNKQDDRMFMFWVNTSFVQQLEIIPKSGLDKAHKDKNHKAFPEDFHVELTFDQLDQQQSHTTVVASAEEQTNNQHYPQSSNNVATSSSHHDNITVVASDAPQNNNNNNNLNSSNSNNATTTTTKNNISLASSQSNPVQQESNPSTTTQVSEENSAPKVEAEKIENSNASANDSETSSNSSS
As for B1, the “phosphorylation response of proteins to cyclic AMP (antibody detection on SDS gels)” value was “they exhibited a much stronger initial phosphorylation response to cyclic AMP”.
